Test results: publication PMC10206803, “Structural insights into DNA recognition by the BEN domain of the transcription factor BANP”

T1: BANP BEN domain (human, UniProt Q8N9N5 208-347)
T1 sequence: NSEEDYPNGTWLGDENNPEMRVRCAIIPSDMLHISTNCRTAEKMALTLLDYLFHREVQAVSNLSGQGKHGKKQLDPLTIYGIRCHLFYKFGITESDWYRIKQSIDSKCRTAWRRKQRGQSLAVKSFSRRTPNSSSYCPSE

T2: BEND6 BEN domain (human, UniProt Q5SZJ8 170-271)
T2 sequence: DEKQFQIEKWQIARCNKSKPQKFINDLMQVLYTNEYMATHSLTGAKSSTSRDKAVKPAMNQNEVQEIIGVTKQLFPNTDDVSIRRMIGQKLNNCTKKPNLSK


Molecular target: T1, BANP BEN domain
Experiment: ITC; ITC: 150 mM NaCl, 20 mM Tris-HCl pH 7.5, with or without DTT, 25 C, 50-90 uM protein in cell, 1 mM DNA in syringe; FP: 20 mM Tris-HCl pH 7.5, 150 mM NaCl, 1 mM
Settings: protein: recombinant; tags: His6-SUMO removed by TEV; blunt

| Binder | Kd [µM] |
| --- | --- |
| CTCacgcgAGAG (dsDNA) DNA 1: CTCACGCGAGAG DNA 2: CTCTCGCGTGAG | 14.3 ± 2.6 |
| TCTCG to TCGCG (dsDNA) DNA 1: GCAAATCGCGTA DNA 2: TACGCGATTTGC | 1.5 ± 0.2 |
| CTCtggcgAGAG (dsDNA) DNA 1: CTCTGGCGAGAG DNA 2: CTCTCGCCAGAG | 14.8 ± 2.3 |
| AAA and TCTCG both mutated (dsDNA) DNA 1: GCCAGCAACATA DNA 2: TATGTTGCTGGC | 15.1 ± 1.9 |
| PBM motif DNA AAATCTCG (dsDNA) DNA 1: GCAAATCTCGTA DNA 2: TACGAGATTTGC | 1 ± 0.1 |
| TCTCG to caaca (dsDNA) DNA 1: GCAAACAACATA DNA 2: TATGTTGTTTGC | 5.4 ± 0.4 |
| AAA to ggg (dsDNA) DNA 1: GCGGGTCTCGTA DNA 2: TACGAGACCCGC | 4.3 ± 0.3 |
| CTCgagcgAGAG (dsDNA) DNA 1: CTCGAGCGAGAG DNA 2: CTCTCGCTCGAG | 14.1 ± 3 |
| AAA to cag (dsDNA) DNA 1: GCCAGTCTCGTA DNA 2: TACGAGACTGGC | 2.9 ± 0.3 |

Same assay, conditions: protein: recombinant; tags: His6-SUMO removed by TEV; blunt, self-complementary

| Binder | Kd [µM] |
| --- | --- |
| CGCG DNA (dsDNA) DNA 1: CTCTCGCGAGAG DNA 2: CTCTCGCGAGAG | 8.4 ± 0.7 |
| CGmCG DNA (dsDNA, 5-methylcytosine at C7 of both strands) DNA 1: CTCTCGCGAGAG DNA 2: CTCTCGCGAGAG | 7.6 ± 0.3 |

Molecular target: T2, BEND6 BEN domain
Experiment: fluorescence polarization; ITC: 150 mM NaCl, 20 mM Tris-HCl pH 7.5, with or without DTT, 25 C, 50-90 uM protein in cell, 1 mM DNA in syringe; FP: 20 mM Tris-HCl pH 7.5, 150 mM NaCl, 1 mM
Settings: protein: recombinant; tags: His6 (pET28-MHL) removed by TEV; label: 5' FAM

| Binder | Kd [µM] |
| --- | --- |
| FAM methylated CGCG DNA (dsDNA, 5-methylcytosine, position not given) DNA 1: CTCTCGCGAGAG DNA 2: CTCTCGCGAGAG | ~39 |

Same assay, conditions: protein: recombinant; tags: His6 (pET28-MHL) removed by TEV; label: 5' FAM; blunt, self-complementary

| Binder | Kd [µM] |
| --- | --- |
| FAM-CGCG DNA (dsDNA) DNA 1: CTCTCGCGAGAG DNA 2: CTCTCGCGAGAG | ~33 |
